Source: patent US20240400677A1 (ELECTRA THERAPEUTICS, published 2024)
Changes are numbered by the printed parent chain.

T1: cynomolgus monkey SIRPγ on CHO cells (cynomolgus monkey, UniProt Q9P1W8 29-386 (human entry))
T1 construct: also called Cyno SIRPγ CHO
T1 chain: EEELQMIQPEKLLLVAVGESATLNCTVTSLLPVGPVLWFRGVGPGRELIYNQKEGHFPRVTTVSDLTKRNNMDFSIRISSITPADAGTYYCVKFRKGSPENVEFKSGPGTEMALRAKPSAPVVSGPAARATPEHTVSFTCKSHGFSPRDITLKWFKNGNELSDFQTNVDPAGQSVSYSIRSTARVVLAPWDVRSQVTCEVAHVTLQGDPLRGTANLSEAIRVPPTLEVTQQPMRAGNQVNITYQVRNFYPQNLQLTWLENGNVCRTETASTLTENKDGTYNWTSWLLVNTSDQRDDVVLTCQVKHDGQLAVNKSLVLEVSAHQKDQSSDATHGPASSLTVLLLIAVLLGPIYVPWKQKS

T2: cynomolgus monkey SIRPα on CHO cells (cynomolgus monkey, UniProt A0A2K5VYQ9 31-507)
T2 construct: whole, on cells; also called Cyno SIRPα CHO
T2 sequence: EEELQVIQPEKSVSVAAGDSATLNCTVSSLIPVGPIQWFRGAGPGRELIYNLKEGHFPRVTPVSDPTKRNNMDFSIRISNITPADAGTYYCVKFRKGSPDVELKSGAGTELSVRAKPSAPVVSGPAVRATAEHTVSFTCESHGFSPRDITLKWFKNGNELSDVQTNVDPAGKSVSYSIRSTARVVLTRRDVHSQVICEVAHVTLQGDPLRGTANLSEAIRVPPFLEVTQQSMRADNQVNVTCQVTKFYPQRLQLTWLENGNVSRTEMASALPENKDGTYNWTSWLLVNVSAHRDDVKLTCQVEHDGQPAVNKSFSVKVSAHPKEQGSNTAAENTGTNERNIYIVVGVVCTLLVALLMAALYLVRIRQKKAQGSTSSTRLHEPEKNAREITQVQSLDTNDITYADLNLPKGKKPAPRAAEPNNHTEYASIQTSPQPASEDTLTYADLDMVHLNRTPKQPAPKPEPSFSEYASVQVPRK

B1: Antibody 35 (scFv, V domains shown)
VH: QVQLVQSGAEVKKPGASVKVSCKASGYTFTSYYIHWVRQAPGQGLEWMGTINPSGGSTSYAQKFQGRVTMTRDTSTSTVYMELSSLRSEDTAVYYCARETSRWLRDYYYGMDVWGQGTTVTVSS
VL: DIVMTQSPLSLPVTPGEPASISCRSSQSLLHSNGYNYLDWYLQKPGQSPQLLIYDASSLESGVPDRFSGSGSGTDFTLKISRVEAEDVGVYYCMQGTHWPLTFGGGTKVEIK
notes: scFv in crude PPE, V5/myc-tagged
B2: Antibody 21 (scFv, V domains shown)
VH: EVQLLESGGGLVQPGGSLRLSCAASGFTLGSYWMHWVRQAPGKGLEWVSLISWDGGSTYYADSVKGRFTISRDNSKNTLYLQMNSLRAEDTAVYYCAKGPWVGYSGYDLNYYYYGMDVWGQGTTVTVSS
VL: DIQMTQSPSSLSASVGDRVTITCRASQDIRRALAWYQQKPGKAPKLLIYAASSLQSGVPSRFSGSGSGTDFTLTISSLQPEDFATYYCLQHNSYPPTFGQGTKLEIK
notes: as for B1
B3: Antibody 24 (scFv, V domains shown)
VH: QVQLVQSGAEVKKPGASVKVSCKASGYTFTGYYMHWVRQAPGQGLEWMGIINPSGGSTNYAQKFQGRVTMTRDTSTSTVYMELSSLRSEDTAVYYCARGPIGYGMDVWGQGTLVTVSS
VL: B2 VL with D28G, R30G, R31N, A32D, A34G, S53N, Q55E, S56T, N92H, P96F
notes: as for B1
B4: Antibody 32 (scFv, V domains shown)
VH: QVQLVQSGAEVKKPGASVKVSCKASGYTFTSYYMYWVRQAPGQGLEWMGWINPNSGNTGYAQKFQGRVTMTRDTSTSTVYMELSSLRSEDTAVYYCAKDRRRGVGLAAAGTSAFDIWGQGTMVTVSS
VL: B2 VL with D28S, R30S, R31N, A32W, L89Q, H91S, N92Y, Y94T, P96Y
notes: as for B1
B5: Antibody 27 (scFv, V domains shown)
VH: QVQLVQSGAEVKKPGASVKVSCKASGYTFTSHDINWVRQAPGQGLEWMGWMNANNGNAGYAQKFQGRVTMTRDTSTSTVYMELSSLRSEDTAVYYCAKDLSPSSSWSTYYYYYGMDVWGQGTMVTVSS
VL: B2 VL with D28S, R30S, R31N, A32L, L89Q, H91S, N92Y, Y94T, P96Y
notes: as for B1
B6: Antibody 14 (scFv, V domains shown)
VH: QVQLVQSGAEVKKPGASVKVSCKASGYTFTSYYMHWVRQAPGQGLEWMGWVDPNNGDTGYAQKFQGRVTMTRDTSTSTVYMELSSLRSEDTAVYYCARDNWGSLDVWGKGTTVTVSS
VL: DIVMTQSPLSLPVTPGEPASISCRSSQSLLHSNGYNYLDWYLQKPGQSPQLLIYAASTLQSGVPDRFSGSGSGTDFTLKISRVEAEDVGVYYCMQGLQTLYSFGQGTKLEIK
notes: as for B1
B7: Antibody 34 (scFv, V domains shown)
VH: QVQLVQSGAEVKKPGASVKVSCKASGYTFSNYYMHWVRQAPGQGLEWMGWMNPNSGNTGYAQKFQGRVTMTRDTSTSTVYMELSSLRSEDTAVYYCARASMYSSSGFDYWGQGTLVTVSS
VL: B6 VL with A55L, L59R, Q60A, S61P, L97S, Q98H, T99W, L100P, Y101P, K108R
notes: as for B1
B8: Antibody 33 (scFv, V domains shown)
VH: QVQLVQSGAEVKKPGASVKVSCKASGYTFTSYYMHWVRQAPGQGLEWMGWMNPNSDNTGYAQKFQGRVTMTRDTSTSTVYMELSSLRSEDTAVYYCARVGVGYGYYYYGMDVWGQGTTVTVSS
VL: DIQMTQSPSSLSASVGDRVTITCRAGQSIGDYLNWYQQKPGKAPKLLIYAASSLQSGVPSRFSGSGSGTDFTLTISSLQPEDFATYYCQQSYSTPWTFGQGTKVEIK
notes: as for B1
B9: Antibody 9 (scFv, V domains shown)
VH: QVQLVQSGAEVKKPGASVKVSCKASGYSFSDYYMHWVRQAPGQGLEWMGWMSPNSGNTGYAQKFQGRVTMTRDTSTSTVYMELSSLRSEDTAVYYCARQREEYGHYYYGMDVWGQGTMVTVSS
VL: EIVMTQSPATLSVSPGERATLSCRASQSLGSTYLAWYQQKPGQAPRLLIYGASTRATGIPARFSGSGSGTEFTLTISSLQSEDFAVYYCQQYYSSPPTFGQGTKVEIK
notes: as for B1
B10: Antibody 29 (scFv, V domains shown)
VH: QVQLVQSGAEVKKPGASVKVSCKASGGTFSSYAISWVRQAPGQGLEWMGIINPSSSSTGYAQKFQGRVTMTRDTSTSTVYMELSSLRSEDTAVYYCARAGYYDSSGYYYSPYYGMDVWGQGTTVTVSS
VL: B9 VL with L29I, G30S, S31G, T32S, Y93G, S95F, P97F, Q101P, E106D
notes: as for B1
B11: Antibody 20 (scFv, V domains shown)
VH: QVQLVQSGAEVKKPGASVKVSCKASGYTFTSYDINWVRQAPGQGLEWMGWMNPNSGNTGYAQKFQGRVTMTRDTSTSTVYMELSSLRSEDTAVYYCARESYAYCSSTSCYDAFDIWGQGTMVTVSS
VL: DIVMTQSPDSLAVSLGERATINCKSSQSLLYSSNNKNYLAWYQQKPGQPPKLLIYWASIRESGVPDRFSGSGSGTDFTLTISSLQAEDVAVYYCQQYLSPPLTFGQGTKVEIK
notes: as for B1
B12: Antibody 16 (scFv, V domains shown)
VH: QVQLVQSGAEVKKPGASVKVSCKASGYTFTSYYMHWVRQAPGQGLEWMGWINPNSGNAGFAQKFQGRVTMTRDTSTSTVYMELSSLRSEDTAVYYCARGPVYSYGPFDYWGQGTLVTVSS
VL: B8 VL with G26S, S28G, G30S, D31T, N34A, S53T, Y92H, T94A, W96I
notes: as for B1

Target: T3, human SIRPγ-His monomer protein (human, UniProt Q9P1W8 29-360)
T3 construct: also called hSIRPγ
Test: BLI Octet, V5-scFv PPE captured, SIRP-His 500 nM

T3 sequence (Q9P1W8 29-360 limits assumed): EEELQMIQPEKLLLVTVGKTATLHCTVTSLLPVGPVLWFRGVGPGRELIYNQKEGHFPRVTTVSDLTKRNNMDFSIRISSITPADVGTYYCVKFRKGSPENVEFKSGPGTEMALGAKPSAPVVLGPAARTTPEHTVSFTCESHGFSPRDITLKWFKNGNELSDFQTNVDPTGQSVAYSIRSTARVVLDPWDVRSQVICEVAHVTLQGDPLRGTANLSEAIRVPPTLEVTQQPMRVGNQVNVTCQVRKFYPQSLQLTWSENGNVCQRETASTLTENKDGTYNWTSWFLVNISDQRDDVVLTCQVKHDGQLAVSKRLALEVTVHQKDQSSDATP

| kdis [s⁻¹] | Binder |
| --- | --- |
| 0.001 to 0.01 | B1 |
| 0.001 to 0.01 | B2 |
| > 0.01 | B3 |
| < 0.001 | B4 |
| 0.001 to 0.01 | B5 |
| 0.001 to 0.01 | B6 |
| 0.001 to 0.01 | B7 |
| 0.001 to 0.01 | B8 |
| 0.001 to 0.01 | B9 |
| 0.001 to 0.01 | B10 |
| < 0.001 | B11 |

Target: T4, human SIRPγ on stably transfected CHO cells (human, UniProt Q9P1W8 29-387)
T4 construct: also called Human SIRPγ CHO
Test: flow cytometry, myc-scFv PPE
Method: (§1) Selected antibodies were tested for binding to stably transfected human SIRPγ, SIRPαV1, or SIRPβ1 (co-transfected with DAP12) Chinese hamster ovary (CHO) cells via flow cytometry. A titration of select antibodies was added to the cells and detected using a fluorescently labelled secondary anti-rat IgG antibody or anti-human IgG antibody. Graphs depict the median fluorescence intensity (MFI) at each concentration. FIGS. 5A and 5G show the binding curves of select antibodies to human SIRPγ, cynomolgus monkey SIRPγ, human SIRPα, cynomolgus monkey SIRPα, human SIRPβ1, or cynomolgus monkey SIRPβl-expressing CHO cells detected using an anti-rat IgG antibody. FIGS. 5B-5F and 5H-5L show the binding curves of select antibodies to human SIRPγ, cynomolgus monkey SIRPγ, human SIRPα, cynomolgus monkey SIRPα, human SIRPβ1, or cynomolgus monkey SIRPβ1-expressing CHO cells detected using an anti-human IgG antibody. […] For select antibodies, each myc-tagged SIRPγ scFv antibody as crude PPE was incubated with each of the SIRP-expressing cell lines stated above along with the parental CHO-K1 cell line. […] Fold change value <2.0 is considered a non-binder.

T4 sequence (Q9P1W8 29-387 limits assumed): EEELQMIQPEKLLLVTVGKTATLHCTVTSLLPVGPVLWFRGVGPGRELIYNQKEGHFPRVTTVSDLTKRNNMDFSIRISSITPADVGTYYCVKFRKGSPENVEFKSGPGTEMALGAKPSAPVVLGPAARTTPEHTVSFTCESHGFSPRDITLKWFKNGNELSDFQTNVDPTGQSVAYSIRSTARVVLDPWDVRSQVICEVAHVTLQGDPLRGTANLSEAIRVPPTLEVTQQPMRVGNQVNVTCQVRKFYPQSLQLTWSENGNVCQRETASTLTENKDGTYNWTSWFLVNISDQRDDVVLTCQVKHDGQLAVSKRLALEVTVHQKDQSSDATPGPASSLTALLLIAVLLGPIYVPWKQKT

| MFI fold change over parental CHO [fold] | Binder |
| --- | --- |
| 18.3 | B1 |
| 51.4 | B2 |
| 11.1 | B3 |
| 10.2 | B4 |
| 23.2 | B5 |
| 19.6 | B6 |
| 18.7 | B7 |
| 33 | B12 |
| 20 | B8 |
| 10.4 | B9 |
| 11.4 | B10 |
| 8.87 | B11 |

Target: T1, cynomolgus monkey SIRPγ on CHO cells
Test: flow cytometry, myc-scFv PPE
Method: as §1

| MFI fold change over parental CHO [fold] | Binder |
| --- | --- |
| 12.8 | B1 |
| 96.1 | B2 |
| 9.85 | B3 |
| 9.63 | B4 |
| 5.81 | B5 |
| 18 | B6 |
| 12 | B7 |
| 16.3 | B12 |
| 8.02 | B8 |
| 6.87 | B9 |
| 13 | B10 |
| 10.5 | B11 |

Target: T5, human SIRPβ1 on CHO cells (co-transfected with DAP12) (human, UniProt O00241 30-398)
T5 construct: whole, on cells; co-transfected with DAP12; also called Human SIRPβ1 CHO
Test: flow cytometry

T5 sequence (O00241 30-398): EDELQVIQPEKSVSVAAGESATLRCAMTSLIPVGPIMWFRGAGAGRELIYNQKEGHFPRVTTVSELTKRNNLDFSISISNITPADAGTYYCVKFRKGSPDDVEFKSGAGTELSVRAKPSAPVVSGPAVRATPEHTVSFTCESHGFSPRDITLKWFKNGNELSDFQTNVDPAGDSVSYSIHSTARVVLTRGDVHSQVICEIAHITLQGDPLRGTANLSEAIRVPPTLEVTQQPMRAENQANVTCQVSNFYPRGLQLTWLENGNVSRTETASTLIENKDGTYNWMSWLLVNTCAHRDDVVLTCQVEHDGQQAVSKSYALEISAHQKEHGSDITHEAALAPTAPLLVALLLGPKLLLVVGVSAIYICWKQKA

| binding result | Binder |
| --- | --- |
| no binding (tested: fold change <2.0) | B2 |
| no binding (tested: fold change <2.0) | B3 |
| no binding (tested: fold change <2.0) | B4 |
| no binding (tested: fold change <2.0) | B5 |
| no binding (tested: fold change <2.0) | B6 |
| no binding (tested: fold change <2.0) | B7 |
| no binding (tested: fold change <2.0) | B12 |
| no binding (tested: fold change <2.0) | B8 |
| no binding (tested: fold change <2.0) | B9 |
| no binding (tested: fold change <2.0) | B10 |
| no binding (tested: fold change <2.0) | B11 |

Target: T2, cynomolgus monkey SIRPα on CHO cells
Test: flow cytometry

| binding result | Binder |
| --- | --- |
| no binding (tested: fold change <2.0) | B1 |
| no binding (tested: fold change <2.0) | B2 |
| no binding (tested: fold change <2.0) | B3 |
| no binding (tested: fold change <2.0) | B4 |
| no binding (tested: fold change <2.0) | B5 |
| no binding (tested: fold change <2.0) | B7 |
| no binding (tested: fold change <2.0) | B12 |
| no binding (tested: fold change <2.0) | B8 |
| no binding (tested: fold change <2.0) | B9 |
| no binding (tested: fold change <2.0) | B10 |
| no binding (tested: fold change <2.0) | B11 |
